What all share (assay): cell-based or functional assay
The target in assay [1] is Full length MmRXR (mouse Mus musculus RXRalpha) (Mus musculus) (UniProt P28700).
Assay [2] addresses VP16CfUSPDEF (VP16 activation domain fused to the D, E and F domains of Choristoneura fumiferana USP) (Choristoneura fumiferana).
Assay [3] deals with VP16MmRXRDEF (VP16 activation domain fused to the DEF domains of mouse RXR) (Mus musculus).
In assay [4] the target is VP16CfEcRCDEF (VP16 activation domain fused to CfEcRCDEF) (Choristoneura fumiferana).
In assay [5] the target is VP16DmEcRCDEF (VP16 activation domain fused to DmEcRCDEF) (Drosophila melanogaster).

Sequence of Full length MmRXR (mouse Mus musculus RXRalpha) (Mus musculus) (P28700 whole entry, the tested form may be a part): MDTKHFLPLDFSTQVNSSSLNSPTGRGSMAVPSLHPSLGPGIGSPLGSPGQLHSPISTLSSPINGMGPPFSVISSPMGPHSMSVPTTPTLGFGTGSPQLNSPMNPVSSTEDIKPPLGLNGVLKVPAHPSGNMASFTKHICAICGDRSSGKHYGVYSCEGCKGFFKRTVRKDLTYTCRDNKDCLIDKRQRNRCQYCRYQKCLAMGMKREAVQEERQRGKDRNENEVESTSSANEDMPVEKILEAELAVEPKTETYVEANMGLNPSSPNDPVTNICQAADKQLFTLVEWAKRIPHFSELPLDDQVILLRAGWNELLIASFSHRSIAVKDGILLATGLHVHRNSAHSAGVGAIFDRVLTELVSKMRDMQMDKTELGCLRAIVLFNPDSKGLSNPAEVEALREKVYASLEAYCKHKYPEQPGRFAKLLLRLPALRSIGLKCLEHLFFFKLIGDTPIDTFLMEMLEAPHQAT

Regarding “CfVgRXR EcR component: truncated CfEcR comprising a partial A/B domain and the complete CDEF domains, fused to VP16AD”, in assay [1], the Mean Fold Activation Through N-(2-ethyl-3-methoxybenzoyl)-N'-(3,5-dimethylbenzoyl)-N'-t-butylhydrazine; pIND(SP1)LacZ reporter, 3T3 cells (switch 1.9) was 19 fold; the Mean Fold Activation Through N-(2-ethyl-3-methoxybenzoyl)-N'-(3,5-dimethylbenzoyl)-N'-t-butylhydrazine; pIND(SP1)LacZ reporter, 293 cells (switch 1.9) was 12 fold; the Mean Fold Activation with 50 µM N-(2-ethyl-3-methoxybenzoyl)-N'-(3,5-dimethylbenzoyl)-N'-t-butylhydrazine; pIND(SP1)LacZ reporter, CHO cells (switch 1.9) worked out at 27 fold.
In assay [1], “Drosophila melanogaster EcR with a modified DNABD fused to VP16AD (EcR component of the DmVgRXR system, Invitrogen)” had a Mean Fold Activation Through N-(2-ethyl-3-methoxybenzoyl)-N'-(3,5-dimethylbenzoyl)-N'-t-butylhydrazine; pIND(SP1)LacZ reporter, 3T3 cells (switch 1.8) of 21 fold; a Mean Fold Activation Through N-(2-ethyl-3-methoxybenzoyl)-N'-(3,5-dimethylbenzoyl)-N'-t-butylhydrazine; pIND(SP1)LacZ reporter, 293 cells (switch 1.8) of 21 fold; a Mean Fold Activation with 50 µM N-(2-ethyl-3-methoxybenzoyl)-N'-(3,5-dimethylbenzoyl)-N'-t-butylhydrazine; pIND(SP1)LacZ reporter, CHO cells (switch 1.8) of 14 fold.
“GAL4CfEcRDEF (GAL4 DNA binding domain fused to the D, E and F domains of Choristoneura fumiferana EcR)”: in assay [2], the Mean Fold Activation Through N-(2-ethyl-3-methoxybenzoyl)-N'-(3,5-dimethylbenzoyl)-N'-t-butylhydrazine; pGAL4RELuc reporter, 3T3 cells (switch 1.2) was 2 fold; the Mean Fold Activation Through N-(2-ethyl-3-methoxybenzoyl)-N'-(3,5-dimethylbenzoyl)-N'-t-butylhydrazine; pGAL4RELuc reporter, 293 cells (switch 1.2) was 2 fold; the Mean Fold Activation with 50 µM N-(2-ethyl-3-methoxybenzoyl)-N'-(3,5-dimethylbenzoyl)-N'-t-butylhydrazine; pGAL4RELuc reporter, CHO cells (switch 1.2) stood at 2 fold. Besides, in assay [3], the Mean Fold Activation Through N-(2-ethyl-3-methoxybenzoyl)-N'-(3,5-dimethylbenzoyl)-N'-t-butylhydrazine; pGAL4RELuc reporter, 3T3 cells (switch 1.1) amounted to 1120 fold; the Mean Fold Activation Through N-(2-ethyl-3-methoxybenzoyl)-N'-(3,5-dimethylbenzoyl)-N'-t-butylhydrazine; pGAL4RELuc reporter, 293 cells (switch 1.1) worked out at 125 fold; the Mean Fold Activation with 50 µM N-(2-ethyl-3-methoxybenzoyl)-N'-(3,5-dimethylbenzoyl)-N'-t-butylhydrazine; pGAL4RELuc reporter, CHO cells (switch 1.1) is 267 fold; the Mean Fold Induction at 1.0 µM Concentration of Muristerone A; reporter gene, 3T3 cells (switch 1.1) was 1 fold. In assay [3], this substance registered a Mean Fold Induction at 1.0 µM Concentration of N'-(3,4-(1,2-ethylenedioxy)-2-methylbenzoyl)-N'-(3,5-dimethylbenzoyl)-N'-tert-butylhydrazine; reporter gene, 3T3 cells (switch 1.1) of 601 fold; a Mean Fold Induction at 1.0 µM Concentration of N-(2-ethyl-3-methoxybenzoyl)-N'-(3,5-dimethylbenzoyl)-N'-tert-butylhydrazine; reporter gene, 3T3 cells (switch 1.1) of 116 fold; a Mean Fold Induction at 1.0 µM Concentration of Ponasterone A; reporter gene, 3T3 cells (switch 1.1) of 1 fold.
On to “GAL4CfUSPDEF (GAL4 DNA binding domain fused to CfUSPDEF)”, for which, in assay [4], the Mean Fold Activation Through N-(2-ethyl-3-methoxybenzoyl)-N'-(3,5-dimethylbenzoyl)-N'-t-butylhydrazine; pGAL4RELuc reporter, 3T3 cells (switch 1.5) was found to be 3 fold; the Mean Fold Activation Through N-(2-ethyl-3-methoxybenzoyl)-N'-(3,5-dimethylbenzoyl)-N'-t-butylhydrazine; pGAL4RELuc reporter, 293 cells (switch 1.5) worked out at 2 fold; the Mean Fold Activation with 50 µM N-(2-ethyl-3-methoxybenzoyl)-N'-(3,5-dimethylbenzoyl)-N'-t-butylhydrazine; pGAL4RELuc reporter, CHO cells (switch 1.5) stood at 2 fold.
In assay [4], “GAL4MmRXRDEF (GAL4 DNA binding domain fused to MmRXRDEF)” had a Mean Fold Activation Through N-(2-ethyl-3-methoxybenzoyl)-N'-(3,5-dimethylbenzoyl)-N'-t-butylhydrazine; pGAL4RELuc reporter, 3T3 cells (switch 1.3) of 47 fold; a Mean Fold Activation Through N-(2-ethyl-3-methoxybenzoyl)-N'-(3,5-dimethylbenzoyl)-N'-t-butylhydrazine; pGAL4RELuc reporter, 293 cells (switch 1.3) of 17 fold; a Mean Fold Activation with 50 µM N-(2-ethyl-3-methoxybenzoyl)-N'-(3,5-dimethylbenzoyl)-N'-t-butylhydrazine; pGAL4RELuc reporter, CHO cells (switch 1.3) of 85 fold; a Mean Fold Induction at 1.0 µM Concentration of Muristerone A; reporter gene, 3T3 cells (switch 1.3) of 1 fold. In assay [4], this substance came in with a Mean Fold Induction at 1.0 µM Concentration of N'-(3,4-(1,2-ethylenedioxy)-2-methylbenzoyl)-N'-(3,5-dimethylbenzoyl)-N'-tert-butylhydrazine; reporter gene, 3T3 cells (switch 1.3) of 54 fold; a Mean Fold Induction at 1.0 µM Concentration of N-(2-ethyl-3-methoxybenzoyl)-N'-(3,5-dimethylbenzoyl)-N'-tert-butylhydrazine; reporter gene, 3T3 cells (switch 1.3) of 71 fold; a Mean Fold Induction at 1.0 µM Concentration of Ponasterone A; reporter gene, 3T3 cells (switch 1.3) of 1 fold. In assay [5], this substance yielded a Mean Fold Activation Through N-(2-ethyl-3-methoxybenzoyl)-N'-(3,5-dimethylbenzoyl)-N'-t-butylhydrazine; pGAL4RELuc reporter, 3T3 cells (switch 1.4) of 269 fold; a Mean Fold Activation Through N-(2-ethyl-3-methoxybenzoyl)-N'-(3,5-dimethylbenzoyl)-N'-t-butylhydrazine; pGAL4RELuc reporter, 293 cells (switch 1.4) of 3 fold; a Mean Fold Activation with 50 µM N-(2-ethyl-3-methoxybenzoyl)-N'-(3,5-dimethylbenzoyl)-N'-t-butylhydrazine; pGAL4RELuc reporter, CHO cells (switch 1.4) of 312 fold.

Source of the values: patent US20040033600A1.
